The record followed here is publication PMC7876137, “Functional and structural characterization of a flavoprotein monooxygenase essential for biogenesis of tryptophylquinone cofactor” (Nature Communications, 2021).

One may read the Kd as the equilibrium constant for the complex coming apart. Low values mean tighter binding, high ones weaker binding. As a reminder, the koff is the rate constant with which the complex falls apart. In general, kon refers to a measure of how fast the partners come together. A lower kon goes with slower complex formation.

T1: linear QhpC (nascent QhpC polypeptide with the 28-residue leader peptide and a C-terminal Twin-Strep tag, … (Pseudomonas putida IFO 15366 (NBRC …)))
T1 construct: also called QhpC-St2; source: E. coli C41 (DE3), co-expressed with His6-QhpD; QhpCD complex purified (HisTrap, Strep trap); QhpD removed by heat denaturation (60 °C, 20 min) before the QhpD-catalyzed reaction; not shown: Twin-Strep (St2), C-terminal, kept
T1 chain: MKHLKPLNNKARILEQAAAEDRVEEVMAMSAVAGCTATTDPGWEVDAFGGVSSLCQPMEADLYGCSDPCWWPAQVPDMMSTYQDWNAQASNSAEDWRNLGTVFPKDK

T2: crosslinked QhpC (quinone-less QhpC with three intra-peptidyl thioether bonds, the 28-residue leader peptide … (Pseudomonas putida IFO 15366 (NBRC …, three intra-peptidyl Cys-to-Asp/Glu thioether bonds (Cys7-Glu16, Cys27-Asp33, Cys41-Asp49 as drawn in Supplementary Fig. 5); Cys37 and Trp43 free)
T2 construct: source: E. coli C41 (DE3), co-expressed with His6-QhpD; QhpCD complex purified (HisTrap, Strep trap); QhpD removed by heat denaturation (60 °C, 20 min) after the QhpD-catalyzed thioether bond formation; not shown: Twin-Strep (St2), C-terminal, kept
T2 chain: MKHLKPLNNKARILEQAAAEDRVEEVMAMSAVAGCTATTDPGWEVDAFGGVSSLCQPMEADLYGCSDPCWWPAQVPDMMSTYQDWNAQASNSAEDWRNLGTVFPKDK

B1: QhpG from Pseudomonas putida IFO 15366 (wild-type) (enzyme)
chain: MAEPRIVVLGAGPAGAATAIGLRRLGYAVTVVSEWRRFAAVEGVSQRVLEGLRHVGLGGALRQAAMPATRQVHWNGQQLHLNQEFLLDRQRFDRALRDDLQRAGVSVVEGRVREVVRDVGHGIRLDDGQVLQADFLVEARGRQAPLAADRLRGPETVSLLNVWQAAPGAPASAVESLADGWAWMARLEDGRCYWQVTLDAAGLPGKAGLADYCAARRADSALVTELFDARALASAEVHARSSTAILAGECVGQDWIRVGDAAMAVDPLSGNGIFQSLSSALQAPVVINTLLRRPERAGLARQFHQQRIEQLFLRFARIGRDFYGQEQGRVGQPFWARRQGWPDMQALHVAADWSAVRVERRPVLRDGLVDEAEVVVTADQPLGVWHLQGVELAPAVRELQAGRPLEAVVSGLSGEQQRMVRRWLLEQGLV
notes: Monomer by gel filtration; From the His6-TEV oligonucleotide, a few residues (G, H) may remain before Met1 after TEV cleavage; this is surmised; also called PpQhpG; peptidyl tryptophan dihydroxylase; source: E. coli C41 (DE3), purified (Ni-Sepharose FF, HisTrap HP; His6-tag removed with TEV protease, second HisTrap HP); not shown: His6, N-terminal, cleaved
B2: QhpG R314A mutant (Pseudomonas putida) (enzyme)
chain: MAEPRIVVLGAGPAGAATAIGLRRLGYAVTVVSEWRRFAAVEGVSQRVLEGLRHVGLGGALRQAAMPATRQVHWNGQQLHLNQEFLLDRQRFDRALRDDLQRAGVSVVEGRVREVVRDVGHGIRLDDGQVLQADFLVEARGRQAPLAADRLRGPETVSLLNVWQAAPGAPASAVESLADGWAWMARLEDGRCYWQVTLDAAGLPGKAGLADYCAARRADSALVTELFDARALASAEVHARSSTAILAGECVGQDWIRVGDAAMAVDPLSGNGIFQSLSSALQAPVVINTLLRRPERAGLARQFHQQRIEQLFLAFARIGRDFYGQEQGRVGQPFWARRQGWPDMQALHVAADWSAVRVERRPVLRDGLVDEAEVVVTADQPLGVWHLQGVELAPAVRELQAGRPLEAVVSGLSGEQQRMVRRWLLEQGLV
notes: R314A is still to be applied; source: E. coli C41 (DE3), purified (Ni-Sepharose FF, HisTrap HP; His6-tag removed with TEV protease, second HisTrap HP); not shown: His6, N-terminal, cleaved
B3: QhpG W183F mutant (Pseudomonas putida) (enzyme)
chain: MAEPRIVVLGAGPAGAATAIGLRRLGYAVTVVSEWRRFAAVEGVSQRVLEGLRHVGLGGALRQAAMPATRQVHWNGQQLHLNQEFLLDRQRFDRALRDDLQRAGVSVVEGRVREVVRDVGHGIRLDDGQVLQADFLVEARGRQAPLAADRLRGPETVSLLNVWQAAPGAPASAVESLADGWAFMARLEDGRCYWQVTLDAAGLPGKAGLADYCAARRADSALVTELFDARALASAEVHARSSTAILAGECVGQDWIRVGDAAMAVDPLSGNGIFQSLSSALQAPVVINTLLRRPERAGLARQFHQQRIEQLFLRFARIGRDFYGQEQGRVGQPFWARRQGWPDMQALHVAADWSAVRVERRPVLRDGLVDEAEVVVTADQPLGVWHLQGVELAPAVRELQAGRPLEAVVSGLSGEQQRMVRRWLLEQGLV
notes: W183F is still to be applied; source: E. coli C41 (DE3), purified (Ni-Sepharose FF, HisTrap HP; His6-tag removed with TEV protease, second HisTrap HP); not shown: His6, N-terminal, cleaved
B4: QhpG E42A mutant (Pseudomonas putida) (enzyme)
chain: MAEPRIVVLGAGPAGAATAIGLRRLGYAVTVVSEWRRFAAVAGVSQRVLEGLRHVGLGGALRQAAMPATRQVHWNGQQLHLNQEFLLDRQRFDRALRDDLQRAGVSVVEGRVREVVRDVGHGIRLDDGQVLQADFLVEARGRQAPLAADRLRGPETVSLLNVWQAAPGAPASAVESLADGWAWMARLEDGRCYWQVTLDAAGLPGKAGLADYCAARRADSALVTELFDARALASAEVHARSSTAILAGECVGQDWIRVGDAAMAVDPLSGNGIFQSLSSALQAPVVINTLLRRPERAGLARQFHQQRIEQLFLRFARIGRDFYGQEQGRVGQPFWARRQGWPDMQALHVAADWSAVRVERRPVLRDGLVDEAEVVVTADQPLGVWHLQGVELAPAVRELQAGRPLEAVVSGLSGEQQRMVRRWLLEQGLV
notes: E42A is still to be applied; source: E. coli C41 (DE3), purified (Ni-Sepharose FF, HisTrap HP; His6-tag removed with TEV protease, second HisTrap HP); not shown: His6, N-terminal, cleaved
B5: QhpG R47A mutant (Pseudomonas putida) (enzyme)
chain: MAEPRIVVLGAGPAGAATAIGLRRLGYAVTVVSEWRRFAAVEGVSQAVLEGLRHVGLGGALRQAAMPATRQVHWNGQQLHLNQEFLLDRQRFDRALRDDLQRAGVSVVEGRVREVVRDVGHGIRLDDGQVLQADFLVEARGRQAPLAADRLRGPETVSLLNVWQAAPGAPASAVESLADGWAWMARLEDGRCYWQVTLDAAGLPGKAGLADYCAARRADSALVTELFDARALASAEVHARSSTAILAGECVGQDWIRVGDAAMAVDPLSGNGIFQSLSSALQAPVVINTLLRRPERAGLARQFHQQRIEQLFLRFARIGRDFYGQEQGRVGQPFWARRQGWPDMQALHVAADWSAVRVERRPVLRDGLVDEAEVVVTADQPLGVWHLQGVELAPAVRELQAGRPLEAVVSGLSGEQQRMVRRWLLEQGLV
notes: R47A is still to be applied; source: E. coli C41 (DE3), purified (Ni-Sepharose FF, HisTrap HP; His6-tag removed with TEV protease, second HisTrap HP); not shown: His6, N-terminal, cleaved
B6: QhpG R70A mutant (Pseudomonas putida) (enzyme)
chain: MAEPRIVVLGAGPAGAATAIGLRRLGYAVTVVSEWRRFAAVEGVSQRVLEGLRHVGLGGALRQAAMPATAQVHWNGQQLHLNQEFLLDRQRFDRALRDDLQRAGVSVVEGRVREVVRDVGHGIRLDDGQVLQADFLVEARGRQAPLAADRLRGPETVSLLNVWQAAPGAPASAVESLADGWAWMARLEDGRCYWQVTLDAAGLPGKAGLADYCAARRADSALVTELFDARALASAEVHARSSTAILAGECVGQDWIRVGDAAMAVDPLSGNGIFQSLSSALQAPVVINTLLRRPERAGLARQFHQQRIEQLFLRFARIGRDFYGQEQGRVGQPFWARRQGWPDMQALHVAADWSAVRVERRPVLRDGLVDEAEVVVTADQPLGVWHLQGVELAPAVRELQAGRPLEAVVSGLSGEQQRMVRRWLLEQGLV
notes: R70A is still to be applied; source: E. coli C41 (DE3), purified (Ni-Sepharose FF, HisTrap HP; His6-tag removed with TEV protease, second HisTrap HP); not shown: His6, N-terminal, cleaved

One assay concerns the target T1, linear QhpC (nascent QhpC polypeptide …). In words: BLI; BLItz system; linear or crosslinked QhpC immobilised through the St2-tag on streptavidin-coated biosensors; QhpG as analyte; 10 mM Tris-HCl pH 7.4, 150 mM NaCl, 0.1% BSA, 0.02% Tween 20; 25 °C; reference with a ligand-free biosensor; global analysis. Particulars: both partners purified.
In turn, B1 had a Kd of 2800 ± 22 nM, an off-rate (koff) of 0.16 s⁻¹ and a kon of 59000 M⁻¹ s⁻¹.

For the next assay, the target named is T2, crosslinked QhpC (quinone-less QhpC …). The description is as above. As to conditions: both partners purified.
The molecule B1 registered a dissociation constant Kd of 28 ± 2.3 nM, a dissociation rate constant (koff) of 0.014 s⁻¹ and a kon of 490000 M⁻¹ s⁻¹.
The like results for B2 were, in that order, 78 ± 28 nM, 0.011 s⁻¹ and 140000 M⁻¹ s⁻¹.
For the molecule B3, binding was put at a Kd of 37 ± 19 nM, the koff stood at 0.013 s⁻¹ and the association rate constant (kon) came to 360000 M⁻¹ s⁻¹.
B4 registered a Kd of 65 ± 8.1 nM, a koff of 0.011 s⁻¹ and a kon of 170000 M⁻¹ s⁻¹.
Turning to B5, the dissociation constant Kd is 1500 ± 490 nM, the off-rate constant (koff) is 0.023 s⁻¹ and the kon stood at 15000 M⁻¹ s⁻¹.
Consider B6, for which binding was put at a Kd of 48 ± 3.6 nM, the koff came out at 0.022 s⁻¹ and the kon was found to be 470000 M⁻¹ s⁻¹.

The target in the next assay is crosslinked QhpC (quinone-less QhpC of Ps. putida with three intra-peptidyl thioether bonds, the 28-residue leader peptide and a C-terminal Twin-Strep tag) (Pseudomonas putida IFO 15366 (NBRC 15366)). Kind of assay: BLI; BLItz; QhpC immobilised through the St2-tag on streptavidin-coated biosensors, QhpG as analyte; 10 mM Tris-HCl, pH 7.4, 150 mM NaCl, 0.1% BSA, 0.02% Tween 20, 25 °C; global analysis.
Conditions: not given
For orientation: In BLI a coated tip is dipped into the sample, and binding shifts an interference pattern.
Molecule “QhpG from Pseudomonas putida (flavoprotein monooxygenase, peptidyl tryptophan dihydroxylase), tag-less wild type (enzyme)” yielded a fold higher affinity (KD) than for linear QhpC of 100 fold.
